Laboratory results from PMC11697363 (Nature Communications, 2025).

Target: T1, GST-Pelota (Arabidopsis thaliana, UniProt Q9ZT87 1-378)
T1 sequence (looked up): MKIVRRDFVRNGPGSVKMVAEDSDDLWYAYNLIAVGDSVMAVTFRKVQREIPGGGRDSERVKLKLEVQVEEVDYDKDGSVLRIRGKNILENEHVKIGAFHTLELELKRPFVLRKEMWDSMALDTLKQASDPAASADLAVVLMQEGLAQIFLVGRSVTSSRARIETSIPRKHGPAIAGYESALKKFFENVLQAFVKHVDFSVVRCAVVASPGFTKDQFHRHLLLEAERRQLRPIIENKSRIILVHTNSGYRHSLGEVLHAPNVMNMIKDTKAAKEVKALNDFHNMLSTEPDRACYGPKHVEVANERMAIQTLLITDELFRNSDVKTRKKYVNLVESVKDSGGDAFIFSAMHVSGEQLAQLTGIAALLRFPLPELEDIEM
Assay: pull-down

B1: MBP-SCE1 (enzyme, Arabidopsis thaliana, UniProt Q42551 1-160, looked up)
chain: MASGIARGRLAEERKSWRKNHPHGFVAKPETGQDGTVNLMVWHCTIPGKAGTDWEGGFFPLTMHFSEDYPSKPPKCKFPQGFFHPNVYPSGTVCLSILNEDYGWRPAITVKQILVGIQDLLDTPNPADPAQTDGYHLFCQDPVEYKKRVKLQSKQYPALV
B1: binds.
